Residue numbers refer to the chain shown, from its start. Like-named read-outs stand apart in the source and are kept apart here. Blank lines part the entries; values can stand above or below the binder they belong to.
Tests used:
[1] = biological target: T1, human BAFF-R expressed on cells (human, UniProt Q96RJ3 1-184); assay: cell-based or functional assay
[2] = biological target: T1, human BAFF-R expressed on cells; assay: flow cytometry, BAFF-R-CHO cells
[3] = biological target: T1, human BAFF-R expressed on cells; assay: told of the group of Table 17, reference AB0369; format not given
[4] = biological target: T2, cynomolgus monkey BAFF-R expressed on cells (cynomolgus monkey); assay: flow cytometry, cyno BAFF-R CHO cells
T2 construct: whole, on cells; also called cBAFF-R; cynoBAFF-R

[5] = biological target: T1, human BAFF-R expressed on cells; assay: flow cytometry, human BAFF-R CHO cells
[6] = biological target: T1, human BAFF-R expressed on cells; assay: blocking of BAFF-biotin on BAFF-R CHO cells
[7] = biological target: T1, human BAFF-R expressed on cells; assay: flow cytometry, hBAFF-R+ cells
[8] = biological target: T2, cynomolgus monkey BAFF-R expressed on …; assay: flow cytometry, cBAFF-R+ cells
[9] = biological target: T1, human BAFF-R expressed on cells; assay: flow cytometry, hBAFF-R+ cells; remark: listed apart in the source
[10] = biological target: T2, cynomolgus monkey BAFF-R expressed on …; assay: flow cytometry, cyno BAFF-R CHO cells; remark: listed apart in the source
[11] = biological target: T1, human BAFF-R expressed on cells; assay: flow cytometry, human BAFF-R CHO cells; remark: listed apart in the source
[12] = biological target: T1, human BAFF-R expressed on cells; assay: blocking of BAFF-biotin on hBAFF-R CHO cells
[13] = biological target: T1, human BAFF-R expressed on cells; assay: flow cytometry, RAJI cells
Experimental: The BAFF-R positive human B lymphoblastoid RAJI cell line was used to assess TriNKET binding to cell surface BAFF-R. Certain BAFF-R TriNKETs in the 2-Fab and F3′ formats, as described in the “exemplary multispecific binding proteins” subsection above, were diluted and incubated with Raji cells. Binding patterns of TriNKETs and parental monoclonal antibodies were detected using a fluorophore conjugated anti-human IgG secondary antibody. The cells were then incubated with a fluorophore conjugated anti-human IgG secondary antibody and were analyzed by flow cytometry. The mean fluorescence intensity (MFI) values were normalized to secondary antibody only controls to obtain fold over background (FOB) values.

[14] = biological target: T1, human BAFF-R expressed on cells; assay: flow cytometry on hBAFFR-CHO cells
[15] = biological target: T2, cynomolgus monkey BAFF-R expressed on …; assay: flow cytometry on cBAFFR-CHO cells
[16] = biological target: T1, human BAFF-R expressed on cells; assay: blocking of BAFF-biotin on hBAFF-R CHO cells, flow cytometry
Experimental: Briefly, CHO cells expressing human BAFF-R were harvested, washed in cold FACS buffer, and seeded at a density of 100,000 cells per well. Test articles were diluted in FACS buffer, and 50 μL of diluted multispecific binding protein or mAb was added to cells, incubated on ice for 60 minutes, then washed with FACS buffer. […] Cells were incubated with 100 μL of 1:200 streptavidin-PE diluted in FACS buffer and incubated on ice for 30 minutes then washed with FACS buffer. Cells were then incubated in 100 μL of 1:1,000 dilution of live/dead dye in PBS for 15 minutes, then washed with FACS buffer, and fixed. After incubation, cells were washed with FACS buffer and resuspended in FACS buffer for analysis with flow cytometry. Median fluorescent intensity (MFI) of each sample and the secondary-only control was calculated. […] Data were fit to a four-parameter non-linear regression curve using GraphPad Prism.

[17] = biological target: T1, human BAFF-R expressed on cells; assay: flow cytometry blocking assay on hBAFFR-CHO cells; blocked ligand: 20 nM BAFF-biotin
[18] = biological target: T1, human BAFF-R expressed on cells; assay: as above; remark: listed apart in the source
[19] = biological target: T1, human BAFF-R expressed on cells; assay: as above; remark: listed apart in the source
[20] = biological target: T1, human BAFF-R expressed on cells; assay: flow cytometry on hBAFFR-CHO cells, anti-mouse IgG(H+L)-PE
[21] = biological target: T1, human BAFF-R expressed on cells; assay: flow cytometry on hBAFFR-CHO cells, anti-mouse (H+L)-PE

B2: AB0606 (bispecific antibody, V domains shown)
VH: EVQLVQSGGGVVQPGRSLRLSCAASGFTFSSYGMHWVRQAPGKCLEWVAVIWYDGSNKYYGDSVKGRFTISRDNSKNTLYLQMNSLRDEDTAVYYCARRFTMLRGWYIEDYGMDVWGQGTTVTVSS
VL: not shown
notes: also called AB0606-001
KHYG-A-CD16Av mediated Cytolysis of Ramos cells EC50 [1]: 0.06 nM
EC50 [2]: 4.5 nM
fold improvement in BAFF-R binding against AB0369 [3]: > 3 fold

B3: AB0622 (bispecific antibody, V domains shown)
VH: B2 VH with Y107I
VL: not shown
notes: also called AB0622-001
KHYG-A-CD16Av mediated Cytolysis of Ramos cells EC50 [1]: 0.09 nM
EC50 [2]: 3.45 nM
fold improvement in BAFF-R binding against AB0369 [3]: > 3 fold

B4: AB0679 (bispecific antibody, V domains shown)
VH: B2 VH with T28P
VL: not shown
notes: also called AB0679-001
EC50 [4]: 2.6 nM
EC50 [5]: 2.3 nM
IC50 [6]: 9.4 nM

B5: AB0682 (bispecific antibody, V domains shown)
VH: B2 VH with Y32S
VL: not shown
notes: also called AB0682-001
EC50 [4]: 3.1 nM
EC50 [5]: 2.4 nM
IC50 [6]: 12.6 nM

B7: AB0899 (bispecific antibody, V domains shown)
VH: B2 VH with Y32S, G55A, M102Y, M113L
VL: not shown
EC50 [7]: 4.3 nM

B8: AB0900 (bispecific antibody, V domains shown)
VH: B2 VH with Y32S, G55A, M102S, M113L
VL: not shown
EC50 [7]: 11.7 nM

B10: AB1081 (bispecific antibody, V domains shown)
VH: B2 VH with T28A, G55E, K76R, M102N, Y107I, M113L
VL: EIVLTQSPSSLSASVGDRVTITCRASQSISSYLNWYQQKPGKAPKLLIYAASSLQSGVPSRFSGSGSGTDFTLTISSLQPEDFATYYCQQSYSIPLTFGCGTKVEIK
notes: also called AB1081-002
EC50 [8]: > 14 nM
EC50 [9]: > 8 nM

B11: AB1085 (bispecific antibody, V domains shown)
VH: B2 VH with S30G, M102H, W106Q
VL: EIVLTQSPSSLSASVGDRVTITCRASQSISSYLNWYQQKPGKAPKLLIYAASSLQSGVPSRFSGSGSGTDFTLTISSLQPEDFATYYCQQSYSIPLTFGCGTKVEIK
notes: also called AB1085-001
EC50 [8]: 4.34 nM
EC50 [9]: 5.78 nM
EC50 [10]: 3.29 nM
EC50 [11]: 4.48 nM
IC50 [12]: 12.7 nM

B13: 3A1 (antibody, V domains shown)
VH: QVQLQQPGAELVKPGASVKLSCKASGYTFTSYWMHWVKQRPGQGLEWIGEIDPFDSYTNYNQNFKGKATLTVDKSSSTAYMLLSSLTSDDSAVYYCARERLRLWSYYFDYWGQGTTLTVSS
VL: DVVMTQTPLSLPVSLGDQASISCRSSQSIVHSNGNTYLEWYLQKPGQSPKLLIYKVSNRLSGVPDRFSGSGSGTDFTLKISRVEAEDLGVYYCFQGSHDPFTFGSGTKLEIK
notes: Mouse hybridoma mAb from DNA immunization; also called clone 3A1
EC50 (read off the curve) [20]: ~0.3 nM

B15: 10H7-C5 (antibody, V domains shown)
VH: EVQLVESGGGLVKPGGSLKLSCAASGFSFSRYAMSWVRQTPEKRLEWVATISDGGSYTHYRDNVKGRFTISRDNAKNNLNLQMSHLKSEDTAIYYCARNEMGLYFDYDVYAMDYWGQGTSVTVSS
VL: DIVMTQTPLSLPVSLGDQASISCRSSQSLLHSNGNTYLYWYLQKPGQSPKLLIHRVSNRFSGVPDRFGGSGSGTDFTLKIIRVEAEDLGVYFCFQGTHVPWTFGGGTKLEIK
notes: Mouse hybridoma mAb from DNA immunization; also called clone 10H7-C5
EC50 (read off the curve) [21]: 1 to 10 nM

B16: 1B3-A7 (antibody, V domains shown)
VH: EVQLVESGGGLVKPGGSLKLSCVVSGFTFSNYAMSWVRQTPEKRLEWVATISDGGGYTYYPDSVKGRFTISRDNAKNNLYLQMSHLKSEDTAIYYCARDDLGGGNYVSSYFDVWGTGTTVTVSS
VL: B15 VL with I2V, L15P, L30V, H54Y, G68S, I81N, W101L, G105S, I111L
notes: Mouse hybridoma mAb from DNA immunization; also called clone 1B3-A7
EC50 (read off the curve) [21]: ~2 nM

Other lines, results leading:

KHYG-A-CD16Av mediated Cytolysis of Ramos cells EC50 [1]: 0.15 nM
EC50 [2]: 5.72 nM
fold improvement in BAFF-R binding against AB0369 [3]: > 3 fold
B1: AB0605 (bispecific antibody, V domains shown)
VH: B2 VH with W106Q
VL: not shown
notes: also called AB0605-001

EC50 [7]: 4.3 nM
B6: AB0898 (bispecific antibody, V domains shown)
VH: B2 VH with Y32S, G55A, M102R, M113L
VL: not shown

EC50 [8]: 1.36 nM
EC50 [9]: 1.97 nM
EC50 [10]: 2.36 nM
EC50 [11]: 2.71 nM
IC50 [12]: 5.72 nM
B9: AB1080 (bispecific antibody, V domains shown)
VH: B2 VH with G55A, M102H, M113L
VL: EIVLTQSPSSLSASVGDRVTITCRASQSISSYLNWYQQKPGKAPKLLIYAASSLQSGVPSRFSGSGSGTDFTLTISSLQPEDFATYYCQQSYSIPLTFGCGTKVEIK
notes: also called AB1080-002; AB1080-003

EC50 [13]: 0.003 nM
EC50 (read off the curve) [14]: ~0.5 nM
EC50 (read off the curve) [15]: ~0.4 nM
IC50 [6]: 0.38 nM
IC50 [16]: 0.5 nM
IC50 (read off the curve) [17]: ~0.4 nM
IC50 (read off the curve) [18]: ~0.4 nM
IC50 (read off the curve) [19]: ~0.8 nM
B12: Ianalumab-mAb (antibody, V domains shown)
VH: QVQLQQSGPGLVKPSQTLSLTCAISGDSVSSNSAAWGWIRQSPGRGLEWLGRIYYRSKWYNSYAVSVKSRITINPDTSKNQFSLQLNSVTPEDTAVYYCARYQWVPKIGVFDSWGQGTLVTVSS
VL: DIVLTQSPATLSLSPGERATLSCRASQFILPEYLSWYQQKPGQAPRLLIYGSSSRATGVPARFSGSGSGTDFTLTISSLEPEDFAVYYCQQFYSSPLTFGQGTKVEIK
notes: Parental control mAb; also called Ianalumab-based tool-mAb; Tool-mAb

EC50 (read off the curve) [20]: ~0.3 nM
B14: 7G4 (antibody, V domains shown)
VH: B13 VH with I51V, F54S, N63K, M81I, S85N, L101V, Y107F
VL: B13 VL
notes: Mouse hybridoma mAb from DNA immunization; also called clone 7G4

Source: US20240360223A1 (DRAGONFLY THERAPEUTICS, published 2024)
